Test: soluble on expression in E. coli; label from the status in PepcDB or PDB records
For “MGSDKIHHHHHHMIINRSKDSSSNEISFVSKDMGFLLTQSEVSYNFKDKLVEDIAKQVFAENRLSVGTIAKTNVKYTKMFIGVNGYDTIMSAYTEASKKTKKKYMIEANLDKFNVIEKGTVTLSVMFEEGFNIINTTFSESMENVKNKVIVVDQYGSKISEKIDNEIFKEVNVIMQKVIQQQENQDVDIDSEFNGIEKSCSLKGYGDVSCITGRGVKVKDSYTKLVGLFYIDTDKHTWQNGEYQIELELNFQNLMDEKSAGQDEPKEESNLGGEDYAGGKEFTAEFTAYCPRKEEGGDTDCRKKKLDPSKKTCAAPMVGKYEQTYYTKEFLNKHPLLNYGDEIQVITGVSGRDGVYKVNDVGPAITIEKNGTYHIDILFGNVEEASKFGRRKGKIIIGGYSGNVSDKAKIVISEAKKHLGKPYKWGGNGPSSFDCSGLMVYCFKKVNVSLPRTSNQQSKKGKKVEQKNLQAGDLVFFHNPVSHVGLYIGNGEFLHAPQKGDVVKISKLSSRRDFNTARRVL”, the “soluble on expression in E. coli” value was “not soluble”. In the case of “MGSDKIHHHHHHMDDIPALMRSLQLKRKPLMVCSGGTTSRCAAEGHWTLDLRQSCRQIHFDPSTQHVEIGAGQTMESLLRELAKHGRSFPTGLSGLPGLGYILNGGISPLSRSQGLAIDQILEIKGVWGDGESFVLSKPEAACCSEDQLAWRGLCGAAPFLAVITDLKLQTHLLQPLRIWQSNLTFEQLLELIHQAESWPDSLSLQWIWGDEVHAYGVLLSADAAAVATFNQLQKTTLCTNVVEIDDVAGIHELPPFALPVVSNAAIGRCHSEVVALLGPAWGSGCQGVITALAELMAERPDPRCSLAVQQLGGVASRQRKDVSSLIHREAIWKPWITAAWPAGDSHIRALSLNWLEKVWATLEPYCAGVHLAQMHPHLPWHQRELKAAFGEWLPGLQELKARHDPNGILPSL”, the “soluble on expression in E. coli” value was “not soluble”. For “MAVKFFGQFLVEKGVVSRETLLQAIELQESVNLSFGATSLAMGILTEADIERIHNAQRIEDLRFGDMAVKLGLLTSEQMMQVLTRQKNTHLYIGEALVKVGSFQADELPKYLEEFKADQAQYATDTVVIPTGVSEPKIWEMVADLSYKMLTRVALLVFRPEPCFVADRVPAMDVYATMDFTGDISGRYFMGVTAATQKKIAKAILKEPNVDNEPKEILDDTVMEFVNVALGNIAAKAAQSGKSMEIAPPEIIEAPDGIQVPDGHKALCFPVCLSDGDRIELAVFIQQLEHHHHHH”, the “soluble on expression in E. coli” value was “soluble”. With “MAHHHHHHMLPAGLTLNTLTPLAQIPVELQRLARCAINAHRNAYCPYSKFAVGAALLHKDLKITAGCNYENCTLKGCCAELCAIVKGNSEGRRTATAVAVYGCSKAPDVMNLPPPDTVTPPCGFCRQSLVEVADLSNNYEDFLVVLVTLDKERVKLVKLCDIIPLKFGPSNIGMDLSQLAKDVELGNEDEKK” the “soluble on expression in E. coli” value was “not soluble”. In the case of “MSLDDRSIRAEERSDKLMNLKIKNITCSIKKVPLKRPFITALHKVTEIEGLKIVVELSDGQTGTGTATPNEKVTGDTLQSSLDIVNQVIKPALINQDFKNWNKLLTTLQTCIVHNTAAKAAMDIALYQLKAKENNESLVNLLGSEKGKLTTDYTISIGSDDHMVSEAKSLVKDGFTAIKIKLGNNSVSHDIKTIQKISKAVGPDISLRIDCNQAWNYKDTLKASRIWAQDNLNIDFIEQPVLKDAISDLTLLSENSPYPIMADESVASYQDAINLIKHHACDYINIKLMKTGGLSEAIKINDLAQACGIKTMVGCMIEPVESIAAAAAFAVANKNVKFIDLDSIFMATQDPDLGKYLKIKNNEIILKDEGHHHHHH”, the “soluble on expression in E. coli” value was “soluble”. In the case of “MGSDKIHHHHHHMMIHGFQSSHQDFSFGPWKLTASKTHIMKSADVEKLADELHMPSLPEMMFGDNVLRIQHGSGFGIEFNATDALRCVNNYQGMLKVACAEEWQESRTEGEHSKEVIKPYDWTYTTDYKGTLLGESLKLKVVPTTDHIDTEKLKAREQIKFFEEVLLFEDELHDHGVSSLSVKIRVMPSSFFLLLRFFLRIDGVLIRMNDTRLYHEADKTYMLREYTSRESKIANLMHVPPSLFTEPNEISQYLPIKEAVCEKLVFPERIDPNPVDSQSTPSE”, the “soluble on expression in E. coli” value was “not soluble”. In the case of “SGIMNIILQDNVQEIEGVVVTGYQQIKNRVFTGAAASVKLDEIKLNGVSDVSRMLEGRIAGLSIQNVTGSFGAAPRINIRGGASIMGNVQPLWVIDGAVYEDLVSLTLDQLASGDAVTLISSAVAGLNASDIEDIQVLKDASATSIYGARALNGVIVITTRSGKRNA”, the “soluble on expression in E. coli” value was “not soluble”. For “MLIAIEGVDGAGKRTLVEKLSGAFRAAGRSVATLAFPRYGQSVAADIAAEALHGEHGDLASSVYAMATLFALDRAGAVHTIQGLCRGYDVVILDRYVASNAAYSAARLHENAAGKAAAWVQRIEFARLGLPKPDWQVLLAVSAELAGERSRGRAQRDPGRARDNYERDAELQQRTGAVYAELAAQGWGGRWLVVGADVDPGRLAATLAPPDVPS”, the “soluble on expression in E. coli” value was “soluble”. With “MAEHDLTARMAGHLDCHLVLPLLEFLQERHLYPEEEILEAKIRLLRGTNMVDYAMDIHKSRYGTDDVPEDMVKRRAEVVSRLTSLGEAIDNIHQNQQIGPDQIETLYQYAKFQFDCGNYSFAAQYLHQYRALCTNIERSLSALWGKLAAEILMQNWDVALEELNRLKEIIDSKNFSSPLNQLQNRIWLMHWSIFIFYNHENGRNGIIDLFFQERYLNAIQTNAPHLLRYLATAVVVNKRRRNMLKELIKVIQQEQHSYKDPITEFLECLFVNYDFDGAQQKLIECEEVILNDPFLGKRIEEGNSITVPLRDEFLENARLFIFETYCRIHRSIDIGMLSQKLNMRYDEGELWIMNLVRNSKLDAKIDSVSGTLIMTTNHVNIHEQFIESLKNLNMRTSMLAKNIVEPAQAMQQATR” the “soluble on expression in E. coli” value was “not soluble”. For “MSLDDLAQLANEVKASFVRLVNEDANSHMIGTAMSTIGRAFTQRIIELVEAELGAAPLPYCFVAFGSMGRDEQLIVTDQDNALILDDRYDVQQHGAYFAQFAELVCRGLDRCGYPLCDGEIMASNPKWRMTRKEWETCFADWIDNPNPQALLNASIFFDLDGVYGRTKWAEQLSGFIVRRARRNQRFLACLARNALNRTPPLGFFKNFVMEKDGRHNNSINLKRRGTAPLADLIRVHALAAGSRAKNSFERLDDVIEAGLLPQGKGKDLRDALEFIAMVRIRHQAIDVEQEGHHHHHH”, the “soluble on expression in E. coli” value was “not soluble”. For “MAHHHHHHMHNSVPASNTCSPFREETVSKRGKRSRGTGGDDKITRGTCSQPFSVITLPPGKLLEWLVCSPCRVYDVNLPRSRNNDNNISSLQCAVLPNFFVEYGGRSYSCVAKVCKPQLRKVLLRALAAVRQEMGSVDDIPHDSLLVVAVSPINAFSSECIHDASRTAMPRAREGCKIVGLCVARELSAPHRMHCESNWSHEKSEASGVGAAVQEGLGDCWEEDATRVGGTNNVRKAFCGVQLVWVADCYRRHGVAKVLVDTARRHISYGFEVPVERVAFSEPTSLGKLFAKSYSGRPDFLIF”, the “soluble on expression in E. coli” value was “not soluble”. In the case of “MLEKFTVIRGKAVPLRGEDIDTDRILPARFMKVLTFEGLGQYLFYDERFDEKGNPKPHPLNDPRYRGATILLVESGFGSGSSREHAPQAIKRAGFKAIIGESFAEIFFGNATAIGLPCVSLAPEDLGVLFRSVEENPELEVEIDLVNKEVRFGDRTAPLFIREEAREALVEGLWDPIGELLEAGELLDQFDRKLPYPRRTE”, the “soluble on expression in E. coli” value was “soluble”. With “MGSDKIHHHHHHMTTLSDVAKEANVSKMTVSRVINHPEQVTPELRAMVEKAMEKLNYHPNSIAQALVNNRSNVVKFVTLEDIDTTEPYYTNLLFGFARGLNAKQYALQLVVDPTRIEKGRADGYLITGARNEDYDMFDKLDKPFVLFGENHRGYDFVDTDNQTAEKMATQYALDRLYKHIIFIGIDIKEPFEYSREAGYINTLQQHRLIPQIYRVSNHSHAAQKVIHEHFKEFKKDTCFICASDRIAVGVVRQLQDERARIPEDFGVIGFDGVFLDQVSNPKLTTIKQPIFEMGKMLAKMLLQKIDQSGSPQGELMVKPQLIRRETTR” the “soluble on expression in E. coli” value was “not soluble”. In the case of “MTVYKGSKKEAKPKECLLFFDKKTNTVRLEKITSNINVKKTRDLDQGTELALKRGIERLRTSSNNQRSGPSSPEEKAKIQKQMQRDTSDSSSDSDGSSDSDKSNGDSSDDEDESEKILLEEMKKPKPYTEREPAPPSSSNTYNHKESHVAPYISSSGNKNKDSEEKYGLALSESSDEDD”, the “soluble on expression in E. coli” value was “not soluble”. For “MSLRAELNQGLIDFLKASPTPFHATASLARRLEAAGYRRLDERDAWHTETGGRYYVTRNDSSLIAIRLGRRSPLESGFRLVGAHTDSPCLRVKPNPEIARNGFLQLGVEVYGGALFAPWFDRDLSLAGRVTFRANGKLESRLVDFRKAIAVIPNLAIHLNRAANEGWPINAQNELPPIIAQLAPGEAADFRLLLDEQLLREHGITADVVLDYELSFYDTQSAAVVGLNDEFIAGARLDNLLSCHAGLEALLNAEGDENCILVCTDHEEVGSCSHCGADGPFLEQVLRRLLPEGDAFSRAIQRSLLVSADNAHGVHPNYADRHDANHGPALNGGPVIKINSNQRYATNSETAGFFRHLCQDSEVPVQSFVTRSDMGCGSTIGPITASQVGVRTVDIGLPTFAMHSIRELAGSHDLAHLVKVLGAFYASSELEGHHHHHH”, the “soluble on expression in E. coli” value was “soluble”. With “MGTKIIGTGVYLPKNVLTNFDLEKIVDTSDEWITTRTGIKERRIAKEETITYMATQAAKEALREANLSPEELDLIILATLTPQKRFPSTACLVQAQLKAKGVYAFDISAACSGFIYALDIADSFIKSGKAKNVLVIGAEKLSEAVDWEDRSTCVLFGDGAGAVVVTRSEDKSDILATRMYAEGSLEELLHADNCGYIRMKGRELFKVAVRSMEEVCREVLEKAGVKPEEVSLVIPHQANVRIINALAEKLNIPKEKVFVNIQKYGNTSAASIPIALHEAIKEGKVKRGDLILMTAMGGGLTWGAVLLRY” the “soluble on expression in E. coli” value was “soluble”. With “MVLTEDFGYPLSRIKLEYEVTFGREKKRADIVIFDKQQTDSPYIIIEVKKPKLKDGKEQLKSYCNATGAPIGVWSNGKSISYYHRKDPNYFEDISNIPRADQKLSDILSERWTIADLIEKDKLISERKSLKDLILEMEDEVLAGAGVDVFEEVFKLIFTKLFDEMESGRNNERNLEFRNYGDTETELKERIQNLFDKARDKWEGVFSPDAKIQLTPSHLSVCVASLQDVKLFNSNLDVVDEAFEYLINKSSKGEKGQYFTPRYVIDMCVKMLNPTANEKMIDTASGSCGFPVHTIFHVWENILKEKGLERSHLFTLEQKPAECTDYVNDNVFAIDFDEKAVRVARTLNLIAGDGQTNVLHLNTLDYERWEQNLDSEDWQDTYFEGWKKLKKLRTRKDSYRDFTFDIVMANPPFAGEVKESRILAKYDMSRSMSLEKVKIAPKGATIVEGEPTFSEALANTGETIYQMSDGTYRKTKLKQAGNMSRDILFVERNLDFLKPGGRMAIVLPQGRFNNSSDKALREYIADRCRILAVVGLHGNVFKPHTGTKTSVLFVQKWDEELCPRVEDYNIFFATMQEPSKDNSGDKIYRSTTNEEGENVPLLDTHGHLIVKHDLFNHDGLTEDGIAEAFAEFAKKERLSFFADAPLTK” the “soluble on expression in E. coli” value was “not soluble”. With “MAGDPMKVAFITLGCRVNSYESEAMAEKFIKSGWEIVDNDEKADAYVINTCTVTNMGDRKSRQMISRARKANKDAVIAAVGCYSQVEPEKVAEIEGVDIVLGTKNKGDIIHYVNKFIEERNQIVNVKDVFTDKKFEDLNIDEYQDKTRAFLKIQDGCNRFCSYCLIPYARGGVCSKNPEKVIGEIKRLAEHGFKEIILSGIHIASYGDDLKGDWNLISIIEKAEQIDGIERIRIGSIEPRFFDEDTISKIKNMKKMCPHFHLSLQSGCTETLERMNRKYTAEEYKEIVYKLRENISDVSITTDVIVGFPGETDEEFEKTYDFLKEIELAKMHVFKYSPREGTKAAAMKNQINGNVKDKRSAELIELDKINEKKFMSKFLDREMDVLFEKKLEENEDLYEGYTPNYIKVVVKSSEDISRKILKVKLTEIQDEHLLGELILYKLEHHHHHH” the “soluble on expression in E. coli” value was “soluble”. In the case of “MGSDKIHHHHHHMMFEFNFARAMASLREEYAKDAKINIQHVWQNETAAVIAKALATEVSFDNAMFVENKPMRISDQQIRQLPVEAQKDLQQKILQNAANGIGFLYGSHLVGGLDGKPSPELLTSLHRFINSPDMFKFIQSITGIEGICYASLQASRYIQGNFLTRHNDVVESEGRKVAFVFGFTPEWHPDWGGLLQFYTPKGVLTDTWVPTFNNLALFDVHHPHSVSFVAPFAKRPRFSVTGWFRTIAPSK”, the “soluble on expression in E. coli” value was “not soluble”.

From the DeepSol protein solubility set
